# Measured values published in article PMC9328315, “Streptococcus pneumoniae binds collagens and C1q via the SSURE repeats of the PfbB adhesin” (Molecular Microbiology, 2022).
# B1: N‐SSURE, recombinant polyhistidine‐tagged polypeptide encompassing amino acids 144–293 (N‐terminal SSURE domain) of the PfbB protein (domain or fragment)
# chain: AETTPEQVKGGVKENTKDSIDVPAAYLEKAEGKGPFTAGVNQVIPYELFAGDGMLTRLLLKASDNAPWSDNGTAKNPALPPLEGLTKGKYFYEVDLNGNTVGKQGQALIDQLRANGTQTYKATVKVYGNKDGKADLTNLVATKNVDININ
# notes: also called N‐terminal repeat; SSURE 1
# Key:
# Assay in all cases: ELISA; titration: wells sensitized with 1 μg/ml of collagen type I, II, III, IV, VI or C1q; increasing concentrations of C‐SSURE or N‐SSURE (0,016–10 μg/ml), detected with anti‐His antibody; dissociation constants calculated from the titration curves (Figure 3c,d)
# [1] = molecular target: type III collagen (calf (from calfskin)) (UniProt P04258)
# Sequence of type III collagen (calf (from calfskin)) (P04258 whole entry): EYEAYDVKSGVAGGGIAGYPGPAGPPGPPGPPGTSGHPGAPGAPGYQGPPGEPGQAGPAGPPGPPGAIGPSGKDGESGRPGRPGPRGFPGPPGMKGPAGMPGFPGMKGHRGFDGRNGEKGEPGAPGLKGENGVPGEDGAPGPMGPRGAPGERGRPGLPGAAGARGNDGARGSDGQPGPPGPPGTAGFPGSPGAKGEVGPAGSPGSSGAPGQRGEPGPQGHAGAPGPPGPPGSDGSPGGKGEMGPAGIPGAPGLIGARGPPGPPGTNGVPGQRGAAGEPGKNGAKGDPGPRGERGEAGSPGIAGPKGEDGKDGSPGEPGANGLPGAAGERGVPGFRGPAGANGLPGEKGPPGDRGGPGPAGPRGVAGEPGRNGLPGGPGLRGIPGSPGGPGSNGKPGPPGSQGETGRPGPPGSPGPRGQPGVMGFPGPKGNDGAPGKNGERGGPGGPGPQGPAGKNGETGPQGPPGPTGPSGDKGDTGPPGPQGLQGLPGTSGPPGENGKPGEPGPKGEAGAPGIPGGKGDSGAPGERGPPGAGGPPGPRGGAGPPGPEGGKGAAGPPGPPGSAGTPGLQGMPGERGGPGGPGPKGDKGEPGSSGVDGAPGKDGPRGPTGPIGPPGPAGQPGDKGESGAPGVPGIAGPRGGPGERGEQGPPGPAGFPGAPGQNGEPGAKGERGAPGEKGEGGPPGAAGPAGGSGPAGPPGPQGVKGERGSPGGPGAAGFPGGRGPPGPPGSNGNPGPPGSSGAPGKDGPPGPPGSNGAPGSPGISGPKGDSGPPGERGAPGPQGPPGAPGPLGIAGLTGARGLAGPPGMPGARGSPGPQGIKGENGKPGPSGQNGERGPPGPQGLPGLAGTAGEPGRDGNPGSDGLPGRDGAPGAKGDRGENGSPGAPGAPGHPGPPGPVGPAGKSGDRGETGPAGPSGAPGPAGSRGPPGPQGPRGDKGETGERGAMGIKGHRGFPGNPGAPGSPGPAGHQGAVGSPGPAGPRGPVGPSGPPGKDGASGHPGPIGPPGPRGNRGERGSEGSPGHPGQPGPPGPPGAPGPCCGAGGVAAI
# [2] = molecular target: complement component C1q (human) (UniProt P02745)
# Sequence of complement component C1q (human) (P02745 23-245, chain 1 of 3): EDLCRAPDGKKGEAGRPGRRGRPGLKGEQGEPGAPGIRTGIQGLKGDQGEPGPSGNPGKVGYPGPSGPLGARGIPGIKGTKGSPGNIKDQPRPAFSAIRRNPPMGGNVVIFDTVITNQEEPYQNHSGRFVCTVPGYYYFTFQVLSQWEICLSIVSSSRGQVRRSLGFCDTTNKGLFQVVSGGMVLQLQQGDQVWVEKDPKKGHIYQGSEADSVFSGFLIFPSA
# Sequence of complement component C1q (human) (P02746 28-253, chain 2 of 3, further chain): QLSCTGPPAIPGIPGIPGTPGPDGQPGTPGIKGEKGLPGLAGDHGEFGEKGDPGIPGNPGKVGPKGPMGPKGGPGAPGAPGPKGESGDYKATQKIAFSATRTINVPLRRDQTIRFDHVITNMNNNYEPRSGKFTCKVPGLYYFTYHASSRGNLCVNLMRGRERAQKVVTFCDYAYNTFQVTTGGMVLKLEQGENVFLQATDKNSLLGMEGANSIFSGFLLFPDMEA
# Sequence of complement component C1q (human) (P02747 29-245, chain 3 of 3, further chain): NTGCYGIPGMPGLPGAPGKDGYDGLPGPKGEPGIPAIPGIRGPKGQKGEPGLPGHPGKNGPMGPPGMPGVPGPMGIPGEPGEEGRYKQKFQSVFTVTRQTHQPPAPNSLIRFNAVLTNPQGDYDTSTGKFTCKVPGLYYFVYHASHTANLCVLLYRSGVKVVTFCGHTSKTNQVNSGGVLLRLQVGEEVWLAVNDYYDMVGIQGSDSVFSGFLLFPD
# [3] = molecular target: type I collagen (calf (from calfskin)) (UniProt P02453)
# Sequence of type I collagen (calf (from calfskin)) (P02453 162-1217, chain 1 of 2): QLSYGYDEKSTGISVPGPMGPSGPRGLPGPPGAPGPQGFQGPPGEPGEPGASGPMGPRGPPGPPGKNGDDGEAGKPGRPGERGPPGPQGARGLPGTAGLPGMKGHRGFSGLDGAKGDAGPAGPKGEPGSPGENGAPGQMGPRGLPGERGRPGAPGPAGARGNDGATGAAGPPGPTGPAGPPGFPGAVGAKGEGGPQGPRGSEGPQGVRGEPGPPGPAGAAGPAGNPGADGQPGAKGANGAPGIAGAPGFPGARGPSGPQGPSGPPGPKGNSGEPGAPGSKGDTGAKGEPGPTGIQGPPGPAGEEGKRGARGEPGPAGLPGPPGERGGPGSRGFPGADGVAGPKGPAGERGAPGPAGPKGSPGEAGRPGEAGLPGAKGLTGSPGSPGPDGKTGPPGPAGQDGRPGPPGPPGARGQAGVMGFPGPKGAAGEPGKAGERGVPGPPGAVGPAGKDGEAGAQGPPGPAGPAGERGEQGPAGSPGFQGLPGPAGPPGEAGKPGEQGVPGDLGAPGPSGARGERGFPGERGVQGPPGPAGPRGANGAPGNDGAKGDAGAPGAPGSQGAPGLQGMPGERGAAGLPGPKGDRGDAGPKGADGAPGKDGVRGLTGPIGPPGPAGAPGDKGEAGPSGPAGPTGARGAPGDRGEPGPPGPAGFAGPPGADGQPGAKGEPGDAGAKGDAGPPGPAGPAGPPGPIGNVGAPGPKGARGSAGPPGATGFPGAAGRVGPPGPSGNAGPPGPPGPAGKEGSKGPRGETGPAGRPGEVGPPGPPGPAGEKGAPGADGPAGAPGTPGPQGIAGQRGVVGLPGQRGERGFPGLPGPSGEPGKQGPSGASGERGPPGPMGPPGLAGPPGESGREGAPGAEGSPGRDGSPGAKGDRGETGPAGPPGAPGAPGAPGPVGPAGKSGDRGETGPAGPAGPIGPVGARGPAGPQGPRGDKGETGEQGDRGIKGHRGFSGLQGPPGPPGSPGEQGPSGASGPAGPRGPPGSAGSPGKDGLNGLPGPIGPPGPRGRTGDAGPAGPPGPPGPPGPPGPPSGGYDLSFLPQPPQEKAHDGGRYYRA
# Sequence of type I collagen (calf (from calfskin)) (P02465 80-1117, chain 2 of 2, further chain): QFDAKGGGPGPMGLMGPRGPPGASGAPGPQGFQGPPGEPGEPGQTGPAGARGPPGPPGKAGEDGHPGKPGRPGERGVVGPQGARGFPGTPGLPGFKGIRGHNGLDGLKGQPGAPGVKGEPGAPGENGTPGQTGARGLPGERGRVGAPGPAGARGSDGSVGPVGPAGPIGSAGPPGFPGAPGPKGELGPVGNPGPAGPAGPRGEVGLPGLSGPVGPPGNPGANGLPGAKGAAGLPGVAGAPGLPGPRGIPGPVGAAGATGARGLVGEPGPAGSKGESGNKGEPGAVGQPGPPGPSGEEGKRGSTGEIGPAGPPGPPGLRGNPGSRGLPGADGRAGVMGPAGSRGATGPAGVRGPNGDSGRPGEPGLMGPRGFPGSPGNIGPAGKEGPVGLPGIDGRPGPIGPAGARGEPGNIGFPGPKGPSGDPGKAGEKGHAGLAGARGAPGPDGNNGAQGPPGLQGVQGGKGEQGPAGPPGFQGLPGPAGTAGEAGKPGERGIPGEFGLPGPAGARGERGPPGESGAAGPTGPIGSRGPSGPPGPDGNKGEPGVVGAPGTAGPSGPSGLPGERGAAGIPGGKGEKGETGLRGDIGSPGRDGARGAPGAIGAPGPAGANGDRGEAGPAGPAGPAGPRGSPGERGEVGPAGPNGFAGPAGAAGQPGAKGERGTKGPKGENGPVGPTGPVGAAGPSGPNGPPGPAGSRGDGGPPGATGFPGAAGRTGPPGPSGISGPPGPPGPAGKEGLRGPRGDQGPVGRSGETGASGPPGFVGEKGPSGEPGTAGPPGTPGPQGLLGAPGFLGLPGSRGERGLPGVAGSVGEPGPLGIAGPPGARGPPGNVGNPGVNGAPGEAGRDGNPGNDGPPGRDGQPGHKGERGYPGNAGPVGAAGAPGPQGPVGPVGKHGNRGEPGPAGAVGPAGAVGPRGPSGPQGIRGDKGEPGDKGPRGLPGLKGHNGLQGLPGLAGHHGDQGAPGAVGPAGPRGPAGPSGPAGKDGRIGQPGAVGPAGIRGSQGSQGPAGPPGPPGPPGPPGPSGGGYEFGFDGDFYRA
# human type IV collagen = human type IV collagen (human, UniProt P02462 173-1669; P08572 184-1712); conditions: both partners purified
# human type VI collagen = human type VI collagen (human, UniProt P12109 20-1028; P12110 21-1019; P12111 26-3177); conditions: both partners purified
molecule,measurement,setting,value
"C‐SSURE, recombinant polyhistidine‐tagged polypeptide encompassing amino acids 902–1053 (C‐terminal SSURE domain) of the PfbB protein (domain or fragment)",Kd,[1],1160 nM
same,Kd,[2],5210 nM
same,Kd,[3],1720 nM
B1,Kd,human type IV collagen,1580 ± 100 nM
same,Kd,human type VI collagen,1200 ± 300 nM
